Measurements taken from article PMC6050342, “Molecular identification and characterization of rhodaneses from the insect herbivore Pieris rapae” (Scientific Reports, 2018).

Substrate: O=S(O)(O)=S
Assay: purified protein
Format: biochemical, Pieris rapae
Settings: 50 mM KCN, Tris-HCl pH 8.5, 30 °C

B1: PrTST2 (Pieris rapae) (protein)
chain: MGNSNSNSTMVDPVRFVSYEDMLKVIHEPEKVIIDVRNPDEIESTGKIPSSINIPLNTVSDTLASMPDDEFLKQYQRPKPSASDELIFYCKSGRRSQEALDKALKLGFSNSKSYLGSWEDWSSKQK
notes: active-site Cys-90
B1 showed a Km of 840 ± 270 µM and a Vmax of 14.2 µmol/min/mg.
